Measurements as given in FireProtDB (doi:10.1021/bi060907v).

Details: Thermococcus kodakarensis (strain ATCC BAA-918 / JCM 12380 / KOD1), pH 9, reversible: Yes, whole UniProt chain shown
[1] = 50 °C, GdnHCl, CD, Tris-HCl 20 mM

B1: Ribonuclease HII wild type, O74035 (protein)
chain: MKIAGIDEAGRGPVIGPMVIAAVVVDENSLPKLEELKVRDSKKLTPKRREKLFNEILGVLDDYVILELPPDVIGSREGTLNEFEVENFAKALNSLKVKPDVIYADAADVDEERFARELGERLNFEAEVVAKHKADDIFPVVSAASILAKVTRDRAVEKLKEEYGEIGSGYPSDPRTRAFLENYYREHGEFPPIVRKGWKTLKKIAEKVESEKKAEERQATLDRYFRKV
Question: What does the source list for B1?
Answer: denaturant m value [1]: 5.64 kcal/mol/M; denaturant midpoint (higher = more stable) [1]: 1.85 M; Tm (Thermal, DSC, Gly-NaOH 20 mM): 85.2 °C; unfolding enthalpy (calorimetric) (Thermal, DSC, Gly-NaOH 20 mM): 137 kcal/mol; unfolding enthalpy (van 't Hoff) (Thermal, DSC, Gly-NaOH 20 mM): 163 kcal/mol
